Where a chain is given by its changes, count along the chain named.

From US20200247894A1 (Regeneron, published 2020) come the findings set out here.

Sequences and labels used below:
T1: Macaca fascicularis IL2Rγ extracellular domain expressed with a C-terminal myc-myc-hexahistidine tag (Macaca fascicularis)
T1 construct: also called mfIL-2Rg-MMH; mfIL-2RG-MMH
T1 chain: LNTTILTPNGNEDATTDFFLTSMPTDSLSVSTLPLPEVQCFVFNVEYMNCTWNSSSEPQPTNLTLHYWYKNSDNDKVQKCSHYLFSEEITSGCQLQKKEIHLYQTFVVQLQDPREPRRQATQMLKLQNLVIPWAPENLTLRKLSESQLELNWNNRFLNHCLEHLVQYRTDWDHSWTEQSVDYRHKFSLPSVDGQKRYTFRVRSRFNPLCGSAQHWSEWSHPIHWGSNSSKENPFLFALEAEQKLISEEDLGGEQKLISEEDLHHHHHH

T2: Human IL2Rγ extracellular domain expressed with a C-terminal myc-myc-hexahistidine tag (human)
T2 construct: also called hIL-2Rg-MMH; hIL-2RG-MMH
T2 chain: T1 chain with A14T, T16A, S22T, R141H, S228T

B1: H4H12874P (antibody, human IgG4 S228P, kappa, V domains shown)
VH: QVQLVESGGGVVQPGRSLRLSCAASGFNFRNFGMHWVRQAPGKGLEWVAGILYDGSSKYYADSVKDRFTISRDNSKNTLFLQMNSLRAEDTAMYYCAKEEDTAMVPFDSWGPGTLVTVSS
VL: DIQLTQSPSFLSASVGDRVTITCWASQGISSYLAWYQQKPGKAPTLLIYAASTLQSGVPSRFSGSGSGTEFTLTISSLQPEDFASYYCQQLKSYPLTFGGGTKVEIKR
notes: anti-IL2Rγ monoclonal antibody expressed with human IgG4 Fc
B2: H4H12871P (antibody, human IgG4 S228P, kappa, V domains shown)
VH: QVQLQESGPGLVKPSQTLSLTCTVSGGSITSGGYYWSWIRQYPGQGLEWIGYIYYSGKTYYNPSFTSRITISVDTSKKQFSLKMSSVTAADTAVYYCARAGFTSSNGWFDPWGQGTLVTVSS
VL: DIQMTQSPSSLSASVGDRVTITCRASQNIRSYLNWYQQKPGKAPKLLIYSASSLQSGVPSRFSGSGSGTDFTLTISSLQPEDFPTYYCQQTYSSPWTFGPGTKVEIKR
notes: anti-IL2Rγ monoclonal antibody expressed with human IgG4 Fc; also called REGN9434
B3: H4H12884P (antibody, human IgG4 S228P, kappa, V domains shown)
VH: QVQLQESGPGLVKPSQTLSLTCTVSGGSISSGGYYWSWIRQHPGKGLEWIGFIYYSGKTYYNPSLKSRLTISVDTSKSQFSLKLRSVTAADTAVYYCARLGYTNSAGWFDPWGQGTLVTVSS
VL: DIQMTQSPSSLSASVGDRVTITCRASQSISSYLNWYQQKPGKAPNLLIYAASSLQSGVPSRFSGSGSGTDFTLTISSLQPEDLATYYCQQSYTTPFTFGPGTKVDIKR
notes: as for B1
B4: H4H12886P (antibody, human IgG4 S228P, kappa, V domains shown)
VH: EVQLVESGGGLVKPGGSLRLSCAASGFTFSTAWMSWVRQSPGRGLEWVGRMKSKTDGGTTFYAAPVKGRFTISRDDSKNTLYLQMNSLKTEDTAVYYCTTGLVPAFYKYYGVDVWGQGTTVTVSS
VL: DIQMTQSPSSLSASVGDRITITCQASQDITNYLNWYQQKPGKAPNLLIYDASNLVTGVPSRFSGSGSGTDFTFTILSLQPEDIATYYCQQYDSLLTFGPGTKVDIKR
notes: as for B1
B5: H4H12863P (antibody, human IgG4 S228P, kappa, V domains shown)
VH: QVQLVESGGGVVQPGRSLRLSCTASGFTFRSYDMYWVRQAPGKGLEWVSVITYDGNNKYYADSVKGRFTISRDNSKNTLFLQMSSLRPEDTAVYYCAKRGLIWVGESFDYWGQGTLVTVSS
VL: DIQMTQSPSTLSASVGDRVTITCRASQSINSWLAWYQQKPGKAPNLLIYKASSLESGVPSRFSGSGSGTEFTLTISSLQPDDFATYYCQQYKSYSWTFGQGTKVEIKR
notes: as for B1

In one assay the target is T1, Macaca fascicularis IL2Rγ extracellular …. The assay can be described thus: SPR Biacore 4000, mAb captured by anti-hFc, HBS-ET, 25C. How it is done: (§1) Equilibrium dissociation constants (KD values) for IL-2Rγ binding to purified anti-IL2Rγ monoclonal antibodies were determined using a Biacore 4000 instrument equipped with a real-time surface plasmon resonance biosensor. All binding studies were performed in 10 mM HEPES, 150 mM NaCl, 3 mM EDTA, and 0.05% v/v Surfactant Tween-20, pH 7.4 (HBS-ET) running buffer at 25° C. and 37° C. The Biacore sensor surface was first derivatized by amine coupling with a monoclonal mouse anti-human Fc antibody (GE, # BR-1008-39) to capture anti-IL2Rγ monoclonal antibodies.
(§2) The dissociation of monoclonal antibody bound IL2Rγ reagents were monitored for 8-10 minutes in HBS-ET running buffer. Kinetic association (kₐ) and dissociation (kd) rate constants were determined by fitting the real-time sensorgrams to a 1:1 binding model using Scrubber 2.0c curve fitting software. Binding dissociation equilibrium constants (KD) and dissociative half-lives (t_{1/2}) were calculated from the kinetic rate constants as: […]
As usually defined, the Kd is the concentration at which binding is half-saturated. As a reminder, the koff is a measure of how fast the partners let go of each other. The term kon denotes the rate constant with which the complex forms. Take B1: the “100 nM Ag Bound” value is 50 RU, the Kd is 4.28 nM, the koff was determined as 0.000306 s⁻¹ and the on-rate constant (kon) turned out to be 71500 M⁻¹ s⁻¹. Moreover, the t1/2 was 38 min.
The corresponding values for B2 are 72 RU, 5.19 nM, 0.000905 s⁻¹, 174000 M⁻¹ s⁻¹ and 13 min.
On the same counts, the results for B3 are 82 RU, 6.98 nM, 0.00121 s⁻¹, 174000 M⁻¹ s⁻¹ and 10 min.
Regarding B4, the “100 nM Ag Bound” value is 57 RU, the Kd came out at 2.45 nM, the koff turned out to be 0.000266 s⁻¹ and the kon was determined as 109000 M⁻¹ s⁻¹. This molecule also gave a t1/2 of 43 min.
For the molecule B5, the “100 nM Ag Bound” value came to 81 RU, the Kd was determined as 1.91 nM, the koff came to 0.00036 s⁻¹ and the kon came out at 189000 M⁻¹ s⁻¹. Moreover, the t1/2 was determined as 32 min.

The next assay addresses T2, Human IL2Rγ extracellular domain …. The description is as above. On the procedure:
as §1, §2
For the molecule B1, the “100 nM Ag Bound” value is 57 RU, binding was put at a Kd of 3.57 nM, the koff is 0.000305 s⁻¹ and the kon stood at 85200 M⁻¹ s⁻¹. The same molecule had a t1/2 of 38 min.
For B2, the “100 nM Ag Bound” value came to 77 RU, the dissociation constant Kd stood at 5.03 nM, the koff worked out at 0.001 s⁻¹ and the kon was found to be 199000 M⁻¹ s⁻¹. This molecule also returned a t1/2 of 12 min.
The corresponding values for B3 are 84 RU, 6.96 nM, 0.00139 s⁻¹, 199000 M⁻¹ s⁻¹ and 8 min.
With B4, the “100 nM Ag Bound” value stood at 60 RU, the dissociation constant (Kd) turned out to be 2.02 nM, the dissociation rate constant (koff) amounted to 0.00027 s⁻¹ and the on-rate constant (kon) was 134000 M⁻¹ s⁻¹. This molecule showed a t1/2 of 43 min.
For B5, the “100 nM Ag Bound” value is 91 RU, binding was put at a Kd of 1.7 nM, the koff is 0.000384 s⁻¹ and the kon was found to be 226000 M⁻¹ s⁻¹. Moreover, the t1/2 turned out to be 30 min.

For another assay the target is unchanged. The assay can be described thus: SPR Biacore 4000, mAb captured by anti-hFc, HBS-ET, 37C. On the procedure: as §1, §2
Background: SPR reads the build-up and loss of mass on a sensor chip optically.
With B1, the “100 nM Ag Bound” value turned out to be 52 RU, the equilibrium dissociation constant (Kd) came to 10.4 nM, the koff was found to be 0.00125 s⁻¹ and the kon came out at 120000 M⁻¹ s⁻¹. The same molecule gave a t1/2 of 9 min.
As for B2, the “100 nM Ag Bound” value is 61 RU; the affinity, expressed as Kd, was 10.6 nM; the koff was 0.00266 s⁻¹; the kon is 250000 M⁻¹ s⁻¹. This molecule came in with a t1/2 of 4 min.
On the same counts, the results for B3 are 62 RU, 13.1 nM, 0.00336 s⁻¹, 257000 M⁻¹ s⁻¹ and 3.4 min.
As for B4, the “100 nM Ag Bound” value was found to be 52 RU, binding was characterised by a dissociation constant (Kd) of 15.4 nM, the koff worked out at 0.000956 s⁻¹ and the on-rate (kon) was found to be 61900 M⁻¹ s⁻¹. The t1/2 was 12 min.
Regarding B5, the “100 nM Ag Bound” value is 77 RU, the Kd worked out at 4.11 nM, the koff came out at 0.00151 s⁻¹ and the kon came out at 367000 M⁻¹ s⁻¹. This molecule returned a t1/2 of 8 min.

In another assay the target is T1, Macaca fascicularis IL2Rγ extracellular …. The assay can be described thus: SPR Biacore 4000, mAb captured by anti-hFc, 37C, dissociation in PBS-T pH 6.0. On the procedure:
(§3) The dissociation rate constant (kd) for binding of IL-2Rγ reagents to purified anti-IL2Rγ monoclonal antibodies was determined using a real-time surface plasmon resonance based Biacore 4000 biosensor platform. […] The CM5 Biacore sensor surface derivatized by amine coupling with monoclonal mouse anti-human Fc antibody (GE, Catalog # BR-1008-39) was used to capture anti-IL2Rγ monoclonal antibodies expressed with human IgG4 Fc. All the IL2Rγ reagents were expressed with a C-terminal myc-myc-hexahistidine tag (subsequently referred to with a -MMH suffix). […] The dissociation of bound IL-2Rg-MMH was performed in PBS-T-pH7.4 or PBS-T-pH6.0 running buffers for 6 minutes.
(§4) Dissociation rate constants (kd) in two running buffers were determined by fitting the real-time binding sensorgrams to a 1:1 binding model using Scrubber 2.0c curve-fitting software. Values of dissociation rate for […] mAb binding to hIL-2RG-MMH and mfIL-2RG-MMH at 25° C. and 37° C. in PBS-T-pH7.4 and PBS-T-pH6.0 is shown in Table 2-1 through Table 2-8.
As to B1, the “100 nM Ag Bound (RU)” value was 82 RU, the koff turned out to be 0.00255 s⁻¹ and the t1/2 amounted to 5 min.
The corresponding values for B2 are 141 RU, 0.00227 s⁻¹ and 5 min.
As for B3, the “100 nM Ag Bound (RU)” value is 135 RU, the koff is 0.00335 s⁻¹ and the t1/2 is 3.4 min.
The corresponding values for B4 are 109 RU, 0.00197 s⁻¹ and 6 min.
Regarding B5, the “100 nM Ag Bound (RU)” value came to 141 RU, the koff turned out to be 0.00208 s⁻¹ and the t1/2 was determined as 6 min.

For another assay the target is unchanged. Kind of assay: SPR Biacore 4000, mAb captured by anti-hFc, 37C, dissociation in PBS-T pH 7.4. On the procedure:
as §3, §4
Regarding B1, the “100 nM Ag Bound (RU)” value turned out to be 92 RU, the dissociation rate constant (koff) turned out to be 0.000541 s⁻¹ and the t1/2 worked out at 21 min.
As for B2, the “100 nM Ag Bound (RU)” value was 143 RU, the koff was 0.00102 s⁻¹ and the t1/2 turned out to be 11 min.
Consider B3, for which the “100 nM Ag Bound (RU)” value was determined as 171 RU, the koff stood at 0.00147 s⁻¹ and the t1/2 stood at 8 min.
With B4, the “100 nM Ag Bound (RU)” value came out at 145 RU, the dissociation rate constant (koff) worked out at 0.000471 s⁻¹ and the t1/2 worked out at 25 min.
Consider B5, for which the “100 nM Ag Bound (RU)” value was found to be 177 RU, the off-rate (koff) came to 0.000606 s⁻¹ and the t1/2 was 19 min.
